# In the supplement of paper PMC9112550, “Optimization of the antimicrobial peptide Bac7 by deep mutational scanning” (BMC Biology, 2022):
# Tested on: Escherichia coli TOP10
# Test: shrunken log2 fold change of peptide-encoding DNA abundance (4.5 h post-induction vs induction); higher = less antimicrobial activity (less host growth inhibition)
# Settings: time post-induction: 4.5 h; library: site-saturation at positions 5, 18, 19, 20
# 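Also: peptides expressed intracellularly from a pBAD plasmid library in pooled LB shake-flask culture, induced with 0.3% L-arabinose, DNA abundance read by NGS, three biological replicates, DESeq2 with apeglm shrinkage.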
row,Sequence,shrunken log2 fold change
1,RRIRARPPRLPRPRPRPFDDPRP,-0.0122
2,RRIRMRPPRLPRPRPRPRCRPRP,0.619
3,RRIRFRPPRLPRPRPRPGSPPRP,0.206
4,RRIRFRPPRLPRPRPRPVTTPRP,0.173
5,RRIRKRPPRLPRPRPRPALEPRP,-0.108
6,RRIRTRPPRLPRPRPRPKRHPRP,0.222
7,RRIRWRPPRLPRPRPRPCVMPRP,0.0583
8,RRIRDRPPRLPRPRPRPYAVPRP,-0.165
9,RRIRDRPPRLPRPRPRPKQMPRP,0.113
10,RRIRSRPPRLPRPRPRPDYMPRP,-0.355
11,RRIRQRPPRLPRPRPRPWRGPRP,-0.0544
12,RRIRIRPPRLPRPRPRPDFNPRP,-0.701
13,RRIRLRPPRLPRPRPRPHFPPRP,2.38
14,RRIRSRPPRLPRPRPRPCWTPRP,-0.306
15,RRIRTRPPRLPRPRPRPIMHPRP,-0.176
16,RRIRLRPPRLPRPRPRPNKAPRP,-0.0163
17,RRIRLRPPRLPRPRPRPHILPRP,-0.0127
18,RRIRKRPPRLPRPRPRPGCHPRP,0.0456
19,RRIRMRPPRLPRPRPRPSEEPRP,0.0287
20,RRIRYRPPRLPRPRPRPDWNPRP,-0.428
21,RRIRNRPPRLPRPRPRPYRFPRP,-0.00669
22,RRIRRRPPRLPRPRPRPMQWPRP,0.103
23,RRIRFRPPRLPRPRPRPFARPRP,-0.115
24,RRIRLRPPRLPRPRPRPLGFPRP,0.38
25,RRIRRRPPRLPRPRPRPSSEPRP,-0.322

row,Sequence,shrunken log2 fold change
1,RRIRHRPPRLPRPRPRPIALPRP,-0.355
2,RRIRGRPPRLPRPRPRPSIEPRP,0.36
3,RRIRMRPPRLPRPRPRPTVPPRP,0.388
4,RRIRMRPPRLPRPRPRPQWMPRP,0.109
5,RRIRIRPPRLPRPRPRPDFAPRP,0.222
6,RRIRKRPPRLPRPRPRPWNIPRP,-0.275
7,RRIRIRPPRLPRPRPRPYLEPRP,-0.849
8,RRIRIRPPRLPRPRPRPGPQPRP,0.0436
9,RRIRLRPPRLPRPRPRPKIVPRP,-0.142
10,RRIRYRPPRLPRPRPRPLNEPRP,-0.0438
11,RRIRNRPPRLPRPRPRPTDFPRP,-0.164
12,RRIRFRPPRLPRPRPRPHKLPRP,-0.377
13,RRIRCRPPRLPRPRPRPFACPRP,-0.22
14,RRIRGRPPRLPRPRPRPYSGPRP,-0.0221
15,RRIRPRPPRLPRPRPRPAKGPRP,0.403
16,RRIRQRPPRLPRPRPRPHKRPRP,-0.218
17,RRIRNRPPRLPRPRPRPKEFPRP,-0.012
18,RRIRDRPPRLPRPRPRPADCPRP,-0.0601
19,RRIRSRPPRLPRPRPRPKAEPRP,0.213
20,RRIRKRPPRLPRPRPRPGQRPRP,0.328
21,RRIRRRPPRLPRPRPRPWTRPRP,-0.0224
22,RRIRKRPPRLPRPRPRPCYKPRP,0.0747
23,RRIRRRPPRLPRPRPRPFPFPRP,-0.0334
24,RRIRWRPPRLPRPRPRPGYGPRP,-0.0305
25,RRIRDRPPRLPRPRPRPVVPPRP,0.0405

row,Sequence,shrunken log2 fold change
1,RRIRCRPPRLPRPRPRPWTDPRP,-0.055
2,RRIRPRPPRLPRPRPRPRPYPRP,0.173
3,RRIRQRPPRLPRPRPRPWVQPRP,-0.0131
4,RRIRDRPPRLPRPRPRPMLLPRP,0.307
5,RRIRKRPPRLPRPRPRPYLFPRP,-0.0275
6,RRIRLRPPRLPRPRPRPMVFPRP,0.0182
7,RRIRKRPPRLPRPRPRPLGGPRP,0.288
8,RRIRKRPPRLPRPRPRPHNTPRP,-0.152
9,RRIRCRPPRLPRPRPRPYLKPRP,-1.1
10,RRIRERPPRLPRPRPRPLEMPRP,-0.216
11,RRIRPRPPRLPRPRPRPEVIPRP,0.0141
12,RRIRPRPPRLPRPRPRPNRHPRP,-0.0624
13,RRIRARPPRLPRPRPRPNDAPRP,-0.0891
14,RRIRGRPPRLPRPRPRPVFCPRP,0.206
15,RRIRIRPPRLPRPRPRPRVPPRP,1.5
16,RRIRPRPPRLPRPRPRPGHSPRP,-0.0921
17,RRIRYRPPRLPRPRPRPFHSPRP,-0.0599
18,RRIRRRPPRLPRPRPRPWQCPRP,-0.0743
19,RRIRIRPPRLPRPRPRPFSFPRP,-0.742
20,RRIRHRPPRLPRPRPRPLFVPRP,-0.471
21,RRIRCRPPRLPRPRPRPQKDPRP,-0.202
22,RRIRGRPPRLPRPRPRPYAFPRP,0.413
23,RRIRDRPPRLPRPRPRPSLMPRP,0.175
24,RRIRRRPPRLPRPRPRPTQNPRP,1.03
25,RRIRERPPRLPRPRPRPHGEPRP,-0.0812

row,Sequence,shrunken log2 fold change
1,RRIRARPPRLPRPRPRPNPFPRP,-0.0899
2,RRIRRRPPRLPRPRPRPFPKPRP,0.0876
3,RRIRERPPRLPRPRPRPCPGPRP,-0.451
4,RRIRIRPPRLPRPRPRPLPEPRP,0.0361
5,RRIRARPPRLPRPRPRPGQRPRP,0.107
6,RRIRSRPPRLPRPRPRPELSPRP,0.963
7,RRIRYRPPRLPRPRPRPSIMPRP,-1.54
8,RRIRFRPPRLPRPRPRPLTSPRP,-0.0399
9,RRIRTRPPRLPRPRPRPCSTPRP,-0.11
10,RRIRARPPRLPRPRPRPRYPPRP,0.0172
11,RRIRDRPPRLPRPRPRPEPWPRP,0.32
12,RRIRHRPPRLPRPRPRPSDIPRP,-0.978
13,RRIRGRPPRLPRPRPRPYDDPRP,-0.199
14,RRIRKRPPRLPRPRPRPRLTPRP,0.501
15,RRIRARPPRLPRPRPRPVFPPRP,0.207
16,RRIRDRPPRLPRPRPRPRSEPRP,-0.0682
17,RRIRVRPPRLPRPRPRPASKPRP,-0.0732
18,RRIRGRPPRLPRPRPRPYFHPRP,-0.462
19,RRIRMRPPRLPRPRPRPKLEPRP,1.14
20,RRIRPRPPRLPRPRPRPDYYPRP,-0.346
21,RRIRQRPPRLPRPRPRPNCYPRP,-0.284
22,RRIRKRPPRLPRPRPRPPDHPRP,0.973
23,RRIRMRPPRLPRPRPRPFTCPRP,-0.173
24,RRIRHRPPRLPRPRPRPYSPPRP,-0.0769
25,RRIRPRPPRLPRPRPRPDWLPRP,0.288

row,Sequence,shrunken log2 fold change
1,RRIRIRPPRLPRPRPRPCNIPRP,-0.106
2,RRIRYRPPRLPRPRPRPFNHPRP,-0.732
3,RRIRQRPPRLPRPRPRPYWTPRP,-0.496
4,RRIRIRPPRLPRPRPRPLWHPRP,-0.105
5,RRIRLRPPRLPRPRPRPGQSPRP,0.0614
6,RRIRMRPPRLPRPRPRPLHIPRP,-0.0533
7,RRIRMRPPRLPRPRPRPNIAPRP,0.397
8,RRIRPRPPRLPRPRPRPQTTPRP,-0.161
9,RRIRSRPPRLPRPRPRPFIPPRP,-0.629
10,RRIRTRPPRLPRPRPRPVMYPRP,0.0131
11,RRIRSRPPRLPRPRPRPTYGPRP,-0.303
12,RRIRPRPPRLPRPRPRPKLPPRP,0.298
13,RRIRKRPPRLPRPRPRPHRLPRP,0.164
14,RRIRFRPPRLPRPRPRPMRKPRP,0.222
15,RRIRSRPPRLPRPRPRPDRTPRP,-0.256
16,RRIRGRPPRLPRPRPRPGPWPRP,0.484
17,RRIRYRPPRLPRPRPRPTTFPRP,-0.645
18,RRIRLRPPRLPRPRPRPSEYPRP,-0.675
19,RRIRNRPPRLPRPRPRPILKPRP,0.0926
20,RRIRGRPPRLPRPRPRPMMRPRP,1.01
21,RRIRCRPPRLPRPRPRPKPCPRP,0.084
22,RRIRIRPPRLPRPRPRPHCNPRP,-0.784
23,RRIRFRPPRLPRPRPRPAWCPRP,0.205
24,RRIRVRPPRLPRPRPRPVYWPRP,0.0159
25,RRIRHRPPRLPRPRPRPPWMPRP,0.197

row,Sequence,shrunken log2 fold change
1,RRIRWRPPRLPRPRPRPSMDPRP,-0.128
2,RRIRCRPPRLPRPRPRPGTYPRP,-0.628
3,RRIRSRPPRLPRPRPRPEHAPRP,-0.0123
4,RRIRMRPPRLPRPRPRPTTLPRP,0.34
5,RRIRYRPPRLPRPRPRPHSLPRP,-0.184
6,RRIRPRPPRLPRPRPRPTSGPRP,0.173
7,RRIRYRPPRLPRPRPRPKDTPRP,-0.392
8,RRIRTRPPRLPRPRPRPPELPRP,0.194
9,RRIRHRPPRLPRPRPRPLFYPRP,-0.702
10,RRIRKRPPRLPRPRPRPEWWPRP,0.0708
11,RRIRFRPPRLPRPRPRPEPLPRP,0.0513
12,RRIRQRPPRLPRPRPRPALIPRP,0.144
13,RRIRTRPPRLPRPRPRPTVSPRP,0.077
14,RRIRTRPPRLPRPRPRPLQIPRP,4.62
15,RRIRHRPPRLPRPRPRPPEPPRP,0.113
16,RRIRIRPPRLPRPRPRPPWRPRP,0.507
17,RRIRYRPPRLPRPRPRPSVWPRP,0.0896
18,RRIRTRPPRLPRPRPRPQDEPRP,-0.152
19,RRIRPRPPRLPRPRPRPQQSPRP,-0.236
20,RRIRARPPRLPRPRPRPSLEPRP,0.455
21,RRIRLRPPRLPRPRPRPWNRPRP,-0.0226
22,RRIRVRPPRLPRPRPRPMVGPRP,0.0148
23,RRIRWRPPRLPRPRPRPARDPRP,0.377
24,RRIRSRPPRLPRPRPRPPGNPRP,-0.0179
25,RRIRVRPPRLPRPRPRPEMIPRP,-0.0397
